The source of these data is the RNAGym collection of RNA variant scans (doi:10.1073/pnas.2313332121).

B1: TPR t1 (parent)
chain: GACCAAUCUGCCCUCAGAGCUCGAGAACAUCUUCGGAUGCAGAGGAGGCAGGCUUCGGUGGCGCGAUAGCGCCAACGUCCUCAACCUCCAAUGCAUCCCACCACAUGAUGAUGCCUGAAGAGCCUUGGUUUUUUG

Variants of B1 are the subject of the data set. Description: polymerase ribozyme fitness, log enrichment relative to wild type (log ratio); higher = more active; in vitro selection for triplet polymerase activity. In short, it runs like this:
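Input and output libraries were sequenced on Illumina after a single in vitro selection round, run in triplicate on PCR-built, transcribed mutant libraries of each subunit of a heterodimeric triplet polymerase ribozyme. Selection annealed libraries to a biotinylated primer, the partner subunit and triplets, incubated them frozen at −7 °C, then gel-excised extended constructs for streptavidin-bead capture and RT-PCR. Genotypes with ≥10 input reads and ≥1 read per output were kept. Fitness is the logarithm, taken in base 2, of genotype enrichment divided by wild-type enrichment, using inverse-variance-weighted replicate averages.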
As for GACCAAUCUGCCCUCAGAGCUCGAGAACAUCUUCGGAUGCAGAGGAGGCAGGCUUCGGUGGCGCGAUAACGCCAACGUCCUCAACCUCCAAUGCAUCCCACAACAUGAUGAUGCCUGAAGAGCCUUGGUUUUUUG [G69A C102A], the “polymerase ribozyme fitness (log ratio)” value is -6.02.
GACCAAUCUGCCCUCAGAGCUCGAGAACAUCUUCGGAUGCAGAGGAGGCAGGCUUCGGUGGCGCGAUAACGCCAACGUCCUCAACCUCCAAUGCAUCCCACCACAUGAUGAUACCUGAAGAGCCUUGGUUUUUUG [G69A G113A]: the “polymerase ribozyme fitness (log ratio)” value is -2.7.
The result for GACCAAUCUGCCCUCAGAGCUCGAGAACAUCUUCGGAUGCAGAGGAGGCAGGCUUCGGUGGCGCGAUAACGCCAACGUCCUCAACCUCCAAUACAUCCCACCACAUGAUGAUGCCUGAAGAGCCUUGGUUUUUUG [G69A G93A] reads -3.19; that for GACCAAUCUGCCCUCAGAGCUCGAGAACAUCUUCGGAUGCAGAGGAGGCAGGCUUCGGUGGCGCGAUAACGCCAACGUCCUCAACCUCCAAUUCAUCCCACCACAUGAUGAUGCCUGAAGAGCCUUGGUUUUUUG [G69A G93U], -4.03.
As to GACCAAUCUGCCCUCAGAGCUCGAGAACAUCUUCGGAUGCAGAGGAGGCAGGCUUCGGUGGCGCGAUAACGCCAACGUCCUCAACCUCCAAUGCAUCCCACCACAUGAUGAUGCAUGAAGAGCCUUGGUUUUUUG [G69A C115A], the “polymerase ribozyme fitness (log ratio)” value is -1.77.
For GACCAAUCUGCCCUCAGAGCUCGAGAACAUCUUCGGAUGCAGAGGAGGCAGGCUUCGGUGGCGCGAUAACGCCAACGUCCUCAACCUCCAAUGCAUCCCACCACAUGAUGAUGCUUGAAGAGCCUUGGUUUUUUG [G69A C115U], the “polymerase ribozyme fitness (log ratio)” value is -2.83.
The result for GACCAAUCUGCCCUCAGAGCUCGAGAACAUCUUCGGAUGCAGAGGAGGCAGGCUUCGGUGGCGCGAUAACGCCAACGUCCUCAACCUCCAAUGCAUCCUACCACAUGAUGAUGCCUGAAGAGCCUUGGUUUUUUG [G69A C99U] reads -5.78; that for GACCAAUCUGCCCUCAGAGCUCGAGAACAUCUUCGGAUGCAGAGGAGGCAGGCUUCGGUGGCGCGAUAACGCCAACGUCCUCAACCUCCAAUGCAUCCAACCACAUGAUGAUGCCUGAAGAGCCUUGGUUUUUUG [G69A C99A], -7.72.
Take GACCAAUCUGCCCUCAGAGCUCGAGAACAUCUUCGGAUGCAGAGGAGGCAGGCUUCGGUGGCGCGAUAACGCCAACGUCCUCAACCUCCAAUGCAUCCCACCACAUGAUGAUGACUGAAGGGCCUUGGUGUUUUG [G69A C114A A121G U130G]: the “polymerase ribozyme fitness (log ratio)” value was -4.38.
Regarding GACCAAUCUGCCCUCAGAGCUCGAGAACAUCUUCGGAUGCAGAGGAGGCAGGCUUCGGUGGCGCGAUAACUCCAACGUCCUCAACCUCCAAUGCAUCCCACCACAUGAUGAUGCCUGAAGAGCCUUGGUUUUUUG [G69A G71U], the “polymerase ribozyme fitness (log ratio)” value is -4.27.
With GACCAAUCUGCCCUCAGAGCUCGAGAACAUCUUCGGAUGCAGAGGAGGCAGGCUUCGGUGGCGCGAUAACGCCAACGUCCUCAACCUCCAAUGCAUCCCACCAUAUGAUGAUGCCUGAAGAGCCUUGGUUUUUUG [G69A C104U], the “polymerase ribozyme fitness (log ratio)” value is -2.37.
As to GACCAAUCUGCCCUCAGAGCUCGAGAACAUCUUCGGAUGCAGAGGAGGCAGGCUUCGGUGGCGCGAUAACGCCAACGUCCUCAACCUCAAAUGCAUCCCACCACAUGAUGAUGCCUGAAGAGCCUUGGUUUUUUG [G69A C89A], the “polymerase ribozyme fitness (log ratio)” value is -4.54.
As for GACCAAUCUGCCCUCAGAGCUCGAGAACAUCUUCGGAUGCAGAGGAGGCAGGCUUCGGUGGCGCGAUAACGCCAACGUCCUCAACCUCUAAUGCAUCCCACCACAUGAUGAUGCCUGAAGAGCCUUGGUUUUUUG [G69A C89U], the figure is -2.85.
Turning to GACCAAUCUGCCCUCAGAGCUCGAGAACAUCUUCGGAUGCAGAGGAGGCAGGCUUCGGUGGCGCGAUAACGCCAACGUCCUCAACCUCCAAUGCAUCCCACCACAUGAUGAUACCUGAAGUGCCUUGGUUUUUUG [G69A G113A A121U], the “polymerase ribozyme fitness (log ratio)” value was -1.68.
Regarding GACCAAUCUGCCCUCAGAGCUCGAGAACAUCUUCGGAUGCAGAGGAGGCAGGCUUCGGUGGCGCGAUAACGCCAACGUCCUCAACCUCCAAUGCAUCCCACCACAUCAUGAAGCCUGAAGAGCCUUGGUUUUUUG [G69A G107C U112A], the “polymerase ribozyme fitness (log ratio)” value is -6.47.
The result for GACCAAUCUGCCCUCAGAGCUCGAGAACAUCUUCGGAUGCAGAGGAGGCAGGCUUCGGUGGCGCGAUAACGCCAACGUCCUCAACCUCCAAUGCAUCACACCACAUGAUGAUGCCUGAAGUGCCUUGGUUUUUUG [G69A C98A A121U] reads -6.1.
Regarding GACCAAUCUGCCCUCAGAGCUCGAGAACAUCUUCGGAUGCAGAGGAGGCAGGCUUCGGUGGCGCGAUAACGCCAACGUCCUCAACCUCCAAUGCAUCCCACCACAUGAUUAUGCCUGAAGAGCCUUGGUUUUUUG [G69A G110U], the “polymerase ribozyme fitness (log ratio)” value is -3.36.
The result for GACCAAUCUGCCCUCAGAGCUCGAGAACAUCUUCGGAUGCAGAGGAGGCAGGCUUCGGUGGCGCGAUAACGCCAACGUCCUCAACCUCCAAUGCAUCCCAUCACAUGAUGAUGCCUGAAGAGCCUUGGUUUUUUG [G69A C101U] reads -2.16.
For GACCAAUCUGCCCUCAGAGCUCGAGAACAUCUUCGGAUGCAGAGGAGGCAGGCUUCGGUGGCGCGAUAACGCCAACGUCCUCAACCUCCAAUGCAUCCCAACACAUGAUGAUGCCUGAAGAGCCUUGGUUUUUUG [G69A C101A], the “polymerase ribozyme fitness (log ratio)” value is -3.72.
As for GACCAAUCUGCCCUCAGAGCUCGAGAACAUCUUCGGAUGCAGAGGAGGCAGGCUUCGGUGGCGCGAUAACGCCAACAUCCUCAACCUCCAAUGCAUCCCACCACAUGAUGAUGCCUGAAGAGCCUUGGUUUUUUG [G69A G77A], the figure is -2.61; as for GACCAAUCUGCCCUCAGAGCUCGAGAACAUCUUCGGAUGCAGAGGAGGCAGGCUUCGGUGGCGCGAUAACGCCAACCUCCUCAACCUCCAAUGCAUCCCACCACAUGAUGAUGCCUGAAGAGCCUUGGUUUUUUG [G69A G77C], -4.57.
